The record followed here is article PMC13038412, “Hetero-oligomerization drives structural plasticity of eukaryotic peroxiredoxins” (Nature Chemical Biology, 2026).

Data set [1] addresses T1, His6-Tsa2-EPEA (S. cerevisiae).
T1 sequence (Q04120 1-196, looked up): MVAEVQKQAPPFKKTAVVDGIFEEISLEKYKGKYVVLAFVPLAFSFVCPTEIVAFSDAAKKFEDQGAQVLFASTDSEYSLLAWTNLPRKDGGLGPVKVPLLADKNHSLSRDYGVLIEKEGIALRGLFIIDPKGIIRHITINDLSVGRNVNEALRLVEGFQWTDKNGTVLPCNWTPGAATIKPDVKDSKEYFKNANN
Kind of data set: negative-stain EM; 0.02 mg/ml purified sample in 10 mM HEPES/NaOH pH 8, 137 mM NaCl, 2 mM KCl; 2% uranyl acetate; hetero-oligomer: the 0.88 mol/mol fraction.

Data set [2] shares this target. Kind of data set: MALDI-TOF MS of disulfide-linked dimers; purified homo-oligomers and three tandem-purified hetero-oligomer fractions in 0.1% TFA, DHAP matrix, linear positive mode; dimers reducible with DTT.
The target in data set [3] is roGFP2-LiPrx1 (L. infantum). Kind of data set: native gel or EMSA; clear native PAGE of lysates from Δtsa1Δtsa2 yeast coexpressing a roGFP2-peroxiredoxin fusion with an empty vector or an unfused peroxiredoxin; imaged for GFP fluorescence.
Data set [4] has as its target roGFP2-AtBAS1B (A. thaliana). The data set is described as above.
Data set [5] concerns the molecule itself. The data set is described as above.
Data set [6] concerns the molecule itself. Kind of data set: MALDI-TOF MS of disulfide-linked dimers; purified homo-oligomers and three tandem-purified hetero-oligomer fractions in 0.1% TFA, DHAP matrix, linear positive mode; dimers reducible with DTT.
In another data set the target is T2, His6-Tsa2 (S. cerevisiae, UniProt Q04120 1-196).
T2 construct: Tsa2, Prx1/AhpC-type peroxiredoxin of Saccharomyces cerevisiae; TSA2 from pET15b/His6-TSA2; calculated mass of His6-Tsa2 23.8 kDa; also called His6-tagged Tsa2; His-Tsa2; source: E. coli SHuffle T7 Express, purified (Ni-NTA) from pET15b; or coexpressed with Strep-Tsa1 / Strep-Tsa1ΔCR from pCOLADuet and tandem purified (Ni-NTA, StrepTactin); not shown: His6, N-terminal, kept
T2 sequence (looked up): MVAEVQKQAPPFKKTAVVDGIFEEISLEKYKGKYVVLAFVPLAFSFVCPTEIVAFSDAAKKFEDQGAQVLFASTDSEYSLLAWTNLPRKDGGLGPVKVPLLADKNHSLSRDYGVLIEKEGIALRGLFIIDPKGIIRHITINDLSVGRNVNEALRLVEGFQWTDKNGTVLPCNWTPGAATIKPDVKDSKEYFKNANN
Briefly: pull-down; both genes coexpressed from one pCOLADuet plasmid in E. coli; tandem-affinity purification Ni-NTA then StrepTactin, or vice versa; eluates on reducing SDS-PAGE, western blot (semiquantitative, calibrated with individually purified proteins). The settings on record: partners not purified. In general terms: In western blotting, separated proteins are transferred to a membrane and probed.

Data set [7] concerns the molecule itself. Kind of data set: negative-stain EM; 0.02 mg/ml purified sample in 10 mM HEPES/NaOH pH 8, 137 mM NaCl, 2 mM KCl; 2% uranyl acetate; hetero-oligomer: the 0.88 mol/mol fraction.
Data set [8] deals with the molecule itself. Briefly: native gel or EMSA; clear native PAGE (3-12%) of yeast lysates, imaged for GFP fluorescence; roGFP2 fusions expressed from the genomic loci; cells untreated or treated with 1 mM H2O2 for the indicated times; lysis with 20 mM NEM. For orientation: A gel shift assay detects complexes by their altered migration in electrophoresis.
Data set [9] concerns the molecule itself. Briefly: mass photometry; 5 µM purified samples incubated 15 min at 20, 30, 40 or 45 °C, diluted 25x into 10 mM HEPES/NaOH pH 8, 137 mM NaCl, 2 mM KCl; Refeyn OneMP; disulfide-linked oxidation form.

Regarding His6-Tsa2-EPEA (enzyme), the results for the stoichiometry N in data set [1] and in data set [2] were 10 and 2, respectively.
Take roGFP2-LiPrx1 (enzyme): the stoichiometry N (in general, a count of units in the complex or per binding partner) in data set [3] was 10.
In data set [4], roGFP2-AtBAS1B (enzyme) came in with a stoichiometry N of 10.

B1: roGFP2-AtBAS1A (enzyme, A. thaliana, UniProt Q96291 66-266, looked up)
chain: KAQADDLPLVGNKAPDFEAEAVFDQEFIKVKLSDYIGKKYVILFFYPLDFTFVCPTEITAFSDRHSEFEKLNTEVLGVSVDSVFSHLAWVQTDRKSGGLGDLNYPLISDVTKSISKSFGVLIHDQGIALRGLFIIDKEGVIQHSTINNLGIGRSVDETMRTLQALQYIQENPDEVCPAGWKPGEKSMKPDPKLSKEYFSAI
notes: AtBAS1A, Prx1/AhpC-type peroxiredoxin of the chloroplast stroma of Arabidopsis thaliana; source: Δtsa1Δtsa2 yeast, expressed from a plasmid, in lysate
On to B1, for which the “stoichiometry N” value in data set [5] was determined as 2.

B2: Strep-Tsa1 (enzyme, S. cerevisiae, UniProt P34760 1-196, looked up)
chain: MVAQVQKQAPTFKKTAVVDGVFDEVSLDKYKGKYVVLAFIPLAFTFVCPTEIIAFSEAAKKFEEQGAQVLFASTDSEYSLLAWTNIPRKEGGLGPINIPLLADTNHSLSRDYGVLIEEEGVALRGLFIIDPKGVIRHITINDLPVGRNVDEALRLVEAFQWTDKNGTVLPCNWTPGAATIKPTVEDSKEYFEAANK
notes: Tsa1, Prx1/AhpC-type peroxiredoxin of Saccharomyces cerevisiae; TSA1 subcloned from pET15b/His-TSA1; calculated mass of Strep-Tsa1 22.9 kDa; Dimer-decamer equilibrium; also called Strep-tagged Tsa1; Tsa1 homo-oligomer; source: E. coli SHuffle T7 Express, purified (StrepTactin) from pET45b; or coexpressed with His6-Tsa2 / His6-Tsa2-EPEA from pCOLADuet-1 and tandem purified (Ni-NTA, StrepTactin); …
B2: the “stoichiometry N” value was 2 in [6], roughly 1 Strep-Tsa1 per His6-Tsa2 with His6-Tsa2 and 10 in [7].

B3: roGFP2-Tsa1 (enzyme, S. cerevisiae, UniProt P34760 1-196, looked up)
chain: MVAQVQKQAPTFKKTAVVDGVFDEVSLDKYKGKYVVLAFIPLAFTFVCPTEIIAFSEAAKKFEEQGAQVLFASTDSEYSLLAWTNIPRKEGGLGPINIPLLADTNHSLSRDYGVLIEEEGVALRGLFIIDPKGVIRHITINDLPVGRNVDEALRLVEAFQWTDKNGTVLPCNWTPGAATIKPTVEDSKEYFEAANK
notes: Tsa1 of Saccharomyces cerevisiae, roGFP2-tagged version replacing TSA1 at its endogenous locus; source: S. cerevisiae, gene integrated at the TSA1 genomic locus under the native promoter, in lysate
With B3, the “stoichiometry N” value in data set [8] came out at 2.

B4: His6-GFP-TEV-Tsa2 (enzyme, S. cerevisiae, UniProt Q04120 1-196, looked up)
chain: MVAEVQKQAPPFKKTAVVDGIFEEISLEKYKGKYVVLAFVPLAFSFVCPTEIVAFSDAAKKFEDQGAQVLFASTDSEYSLLAWTNLPRKDGGLGPVKVPLLADKNHSLSRDYGVLIEKEGIALRGLFIIDPKGIIRHITINDLSVGRNVNEALRLVEGFQWTDKNGTVLPCNWTPGAATIKPDVKDSKEYFKNANN
notes: Tsa2 of Saccharomyces cerevisiae, behind His6, GFP and a TEV site; Probably made in E. coli (AhpC contamination was detected); also called Tsa2 with an N-terminal GFP tag; not shown: His6, N-terminal, kept; GFP, N-terminal, kept
As to B4, the binding result in data set [9] is “binds”.
